# Reference: doi:10.1101/2022.03.11.483953, “Structure and regulation of the myotonic dystrophy kinase-related Cdc42-binding kinase” (bioRxiv, 2022)
# T1: FITC-labeled CRIB peptide of C. elegans MRCK1 (residues 1543-1572) (C. elegans, UniProt O01583 1543-1572, fluorescein (FITC) label, position not stated)
# T1 construct: MRCK1, C. elegans, CRIB motif, residues 1543-1572; also called CRIB motif peptide; fluorescein-labeled peptide
# T1 peptide (looked up): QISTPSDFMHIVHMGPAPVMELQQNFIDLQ
# Tests used:
# [1] = molecular target: T1, FITC-labeled CRIB peptide of C. elegans …; test: fluorescence polarisation; fluorescence anisotropy; Cdc42^2-178 loaded with GMPPNP titrated into 100 nM fluorescein-labeled peptide; 20 °C, 20 mM Tris pH 8.0, 100 mM NaCl, 1 mM TCEP; one-site binding model; settings: both partners purified
# [2] = molecular target: the molecule itself; test: rotary shadowing electron microscopy; samples at 50 μg/ml in 100 mM ammonium acetate, 30% (v/v) glycerol, pH 7.4, sprayed on mica, coated with platinum and carbon
Binder,fold stronger than Cdc42 bound to GDP [1] [fold],stoichiometry N [2]
"Cdc42^2-178 (C-terminally truncated Cdc42 lacking its geranylgeranylation motif) (domain or fragment, Cdc42, residues 2-178, C-terminally truncated; Loaded with GDP or with GMPPNP (Dbs exchange factor, then size exclusion) before the titration; the two loaded states are told apart by the assay; The species may be human instead (P60953); also called Cdc42 (residues 2-178); source: E. coli, purified (GST beads, TEV cleavage, SD75 size exclusion); not shown: GST, N-terminal, cleaved) not shown",5,–
"C. elegans MRCK1, full length (MRCK1^1-1592) (enzyme, UniProt O01583 1-1592, looked up, source: baculovirus-infected Sf9 insect cells, purified (HisTrap, TEV cleavage, HiTrap Q); not shown: His10, N-terminal, cleaved; StrepII, N-terminal, cleaved) MAEPPPDDSAPVRLKTLENIYMDGPSKKPEALSFETLIDSLICLYDECCNSTLRKEKCIAEFVESVKTVISKAKKLRLSRDDFEVLKVIGKGAFGEVAVVRMRGVGEIYAMKILNKWEMVKRAETACFREERDVLVYGDRRWITNLHYAFQDEKNLYFVMDYYIGGDMLTLLSKFVDHIPESMAKFYIAEMVLAIDSLHRLGYVHRDVKPDNVLLDMQGHIRLADFGSCLRILADGSVASNVAVGTPDYISPEILRAMEDGRGRYGKECDWWSLGICMYEMLYGTTPFYSERLVDTYGKIMSHQDMLDFPDDEIDWVVSEEAKDLIRQLICSSDVRFGRNGLSDFQLHPFFEGIDWNTIRDSNPPYVPEVSSPEDTSNFDVDVCEDDFTPCLQETQPPRVLAAFTGNHLPFVGFSYTHGSLLSDARSLTDEIRAIAQRCQGDAELMEKSVDGFMVELENEKAELVQKLKEAQTIIAQHVAENPRSEEDRNYESTIAQLKDEIQILNKRLEDEALAQQQQKPKDEIVAESEKKLKELKERNKQLVMEKSEIQRELDNINDHLDQVLVEKATVVQQRDDMQAELADVGDSLLTEKDSVKRLQDEAEKAKKQVADFEEKLKEIETEKIALIKKQEEVTIEARKSVETDDHLSEEVVAAKNTIASLQATNEERETEIKKLKQRMDEERASHTAQSEQEMKQLEAHYERAQKMLQDNVEQMNVENRGLRDEIEKLSQQMAALPRGGLNEQQLHEIFNWVSEEKATREEMENLTRKITGEVESLKNNSPLTTSNYIQNTPSGWGSRRMNNVARKDGLDLQRQLQAEIDAKLKLKAELKNSQEQYLTSAARLDDTEKRMASLMREVAMLKQQKNIENSSDSAFSSTMGRGDLMISMNNDYEMSNSSLMRQEMISRQSTPSYENAILLHDHQVPKRVDDLRYKQKPMKTASGIFSPVSISAMERGHNFERMKIKTPTKCGHCTSILIGLDRQGLFCQSCQYACHVSCAERVSQSCPVPEEERRPLGIDPTRGVGTAYEGLVKTPRAGGVRKGWQTAYVVVCDFKLYLYDCTVDRQNKMQDVKNEIRLVLDMRDPDFTVCGVSEADVIHAQKGDIPKIFRVTTTQILNSSSEYSSSSKFYTLFMAETEEEKRKWVVALSELKTLLRRSKLADRKAFLVKEVFDVTTLPSIRVAQCCAIIDRSKIVIGFSDHGLYCIEISRQLLIPVGGEKENKQRCVETVEYDEAEQLLMMIVGPAKDRHVRIVPSAALDGRDLKWIKVNDTKGCHLLAVGTNNPGGRAGFFAVAFKKSVTIFQIDRSEKRHKKWKDLAMPGTPQSIAIFNGRLYVGFSHSFRSWSLVGVDSSPVGSGDASGAVLQHISLVNMEDTSLQFLNQQTSYEAKLIVNVPGSPDEYLLVFNMIGLYVNEMGRRSRLPEVMFPTQAKYFAYHEPYLCVFSENEVDIFNVTLAEWVQTINLRSAKPLSGDGILSTCLCNDSPIFVLLQNVLQDQDSIEVPVNLASGSTDGRKVTRRKFTFRTIGKDDRSASERRSHIQISTPSDFMHIVHMGPAPVMELQQNFIDLQSNHSHTSSDKDSLNRSVNND",–,2
